Key:
HIV-RSC3 = test: biolayer interferometry (Octet); fragment secreted by L. gasseri SP1
TNFα [1] = target: TNFα (UniProt P01375); test: biolayer interferometry; fragment secreted by L. rhamnosus GG SP1
TNFα [2] = target: TNFα (UniProt P01375); test: biolayer interferometry (Octet); fragment secreted by L. gasseri

UniProt P01375, sequence (P01375 77-233 limits assumed): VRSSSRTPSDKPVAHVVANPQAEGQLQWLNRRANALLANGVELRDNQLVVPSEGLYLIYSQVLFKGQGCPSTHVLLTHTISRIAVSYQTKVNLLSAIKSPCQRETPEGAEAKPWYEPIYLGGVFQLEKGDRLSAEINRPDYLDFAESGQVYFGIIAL

**Q.** For “VRC01scFv (anti-HIV single chain fragment derived from the broadly neutralizing IgG antibody VRC01)”, which Kd (HIV-RSC3) is on record?
**A.** The Kd was 10.2 nM.

**Q.** How did the Kd (TNFα [1]) turn out when “ozoralizumab (anti-TNFα NANOBODY / antibody fragment marketed by Ablynx) (VHH)” was run?
**A.** Its Kd is 6.2 nM.

**Q.** What about the Kd (TNFα [2]) of the same substance?
**A.** Its Kd is 0.69 nM.
